Measurements from publication PMC2995781.

Experiments:
[1] = target: surfactant protein A (SP-A) in human broncho-alveolar lavage fluid (human (endogenous in BAL fluid)) (UniProt Q8IWL2); test: latex bead agglutination (light microscopy); whole serum or BAL sample; streptavidin latex beads with biotinylated rabbit anti-goat antibody and goat anti-human SP-A antibody (N19); Hank solution, 6.5 mM Ca2+, 3 h at 4°C on a microscope slide; size of the biggest agglutinate in pixel
[2] = target: surfactant protein A (SP-A) in human serum (human (endogenous in serum)) (UniProt Q8IWL2); test: as above

Substance	size of the agglutinates [1]	size of the agglutinates [2]
surfactant protein A (SP-A) in human broncho-alveolar lavage fluid (from UniProt Q8IWL2 21-248) (natural protein)	1060 pixel	
surfactant protein A (SP-A) in human serum (from UniProt Q8IWL2 21-248) (natural protein)		1360 pixel
